Results taken from US20220289837A1, “Cystic Fibrosis Transmembrane Conductance Regulator Stabilizing Agents” (VIB VZW, priority 2019, published 2022).
Values belong to the molecule of their own block, whether it stands above or below them.

Experiments:
F508del-2PT-NBD1 = molecular target: T1, F508del-2PT-NBD1 (Homo sapiens, UniProt P13569, A534P/DEL508-508/I539T/S492P/V470M); experiment: Thermal shift assay (DSF) of F508del-2PT-NBD1; format: binding
T1 construct: His6-SUMO (N, cleaved yes); made in house; host or cells: Escherichia coli BL21(DE3) pLysS
T1 sequence (P13569 with tags, fused parts or gaps V470M/S492P/DEL508-508/A534P/I539T limits assumed): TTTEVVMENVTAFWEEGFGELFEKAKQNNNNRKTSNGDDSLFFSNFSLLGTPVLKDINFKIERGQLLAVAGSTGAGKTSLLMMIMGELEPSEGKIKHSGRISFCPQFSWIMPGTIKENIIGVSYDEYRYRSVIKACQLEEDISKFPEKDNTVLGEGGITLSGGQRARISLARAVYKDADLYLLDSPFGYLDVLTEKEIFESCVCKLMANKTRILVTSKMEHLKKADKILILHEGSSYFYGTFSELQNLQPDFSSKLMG
Experimental: (§1) Solutions of either 2PT-NBD1 or F508del-2PT-NBD1 (10 μM final concentration), nanobodies (30 μM final concentration) and 2.5× or 5× concentrated SYPRO Orange Protein Stain (Molecular Probes) diluted in 20 mM HEPES pH 7.5, 150 mM NaCl, 3 mM MgCl2, 2 mM ATP and 10% (w/v) glycerol, 10% (w/v) ethylene glycol, were added to the wells of a 96-well PCR plates type BR white (VWR) in a final volume of 25 μl. Plates were sealed with EasySeal sheets (Molecular dimensions) and spun 2 min at 900× g. SYPRO orange fluorescence was monitored in CFX96 Touch Real-Time PCR Detection System (Bio-Rad) using FRET scan mode from 10 to 80° C. in increments of either 1° C. or 0.2° C.

2PT-NBD1-RE = experiment: NBD1 ELISA dose-response, binding to 2PT-NBD1-RE; parameters: species or system human; conditions: for binding to 2PT-NBD1-RE: construct containing the regulatory extension
Chain of 2PT-NBD1-RE (P13569 387-678 S492P/A534P/I539T): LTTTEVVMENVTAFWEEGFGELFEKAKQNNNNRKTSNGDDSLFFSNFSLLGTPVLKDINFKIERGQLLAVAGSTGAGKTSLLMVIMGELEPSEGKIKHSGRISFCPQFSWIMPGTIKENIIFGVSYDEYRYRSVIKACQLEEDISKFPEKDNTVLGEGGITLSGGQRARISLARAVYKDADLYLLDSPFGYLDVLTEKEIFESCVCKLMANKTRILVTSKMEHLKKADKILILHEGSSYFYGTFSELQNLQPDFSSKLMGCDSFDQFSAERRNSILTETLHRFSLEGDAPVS
Text: Human ΔRI-NBD1 (residues 387-646, A405-436; SEQ ID NO:59) construct was obtained from Arizona State University Plasmid Repository (clone id: 287374), 2PT-NBD1 mutants (residues 387-646 containing the mutations S492P, A534P, I539T; SEQ ID NO:58), 2PT-NBD1-RE (2PT-NBD1 with residues 387-678) were constructed using WT-NBD1 construct from ASU (clone id: 287401). Mutations were introduced by PCR using PfuUltra high-fidelity DNA polymerase from Agilent (catalogue number: 600382) and sequences were confirmed by automated DNA sequencing (UNC-CH Genome Analysis Facility). Proteins were expressed as N-terminal, His6-SUMO fusion proteins in Escherichia coli (BL21(DE3) pLysS cells, Millipore) as described in [5,11] with the following modifications. Cells were lysed using a French press and recombinant proteins were purified by nickel ion affinity chromatography (HisTrap HP, 1 ml—GE Healthcare). The His6-SUMO tag was removed using Ulp1 protease at 1/100 weight/weight ratio during 20 min on ice. […] Protein concentration was determined using Coomassie Plus (Bradford) Assay Kit (Thermo Scientific).
(§2) For dose-response assays, Nunc MaxiSorp 96-well plates (ThermoScientific), were coated with 5 μg/ml NeutrAvidin Biotin-Binding protein (ThermoScientific) overnight at 4° C. and blocked 2 h at room temperature (RT) with 2% milk in phosphate-buffered saline (PBS). Each new reagent addition was preceded by three washes with 200 μl of NBD1 buffer (20 mM HEPES pH 7.5, 150 mM NaCl, and 10% (w/v) glycerol, 10% (w/v) ethylene glycol, 2 mM ATP, 3 mM MgCl2). Then, biotinylated purified NBD1 proteins at 5 μg/ml were immobilized 30 min at RT followed by 1 h RT incubation with 100 μl various concentrations (0-20 μg/ml) of purified nanobodies. Signal detection was followed using His-tag specific antibody (Invitrogen, catalogue number: MA1-135, 1:3000 dilution) to detect the nanobodies and secondary antibody anti-mouse coupled to horse radish peroxidase (HRP) (Millipore, catalogue number: AP308P, 1:5000 dilution). 50 μl of 1-Step UltraTMB-ELISA (ThermoScientific) was used as a substrate for the peroxidase and intensity of the reaction was proportional to absorbance measured at 450 nm with SynergyMx (BioTek) after addition of 50 μl H2SO4 at 1M.

2PT-NBD1 [1] = molecular target: T2, 2PT-NBD1 (Homo sapiens, UniProt P13569, A534P/I539T/S492P/V470M); experiment: Thermal shift assay (DSF) of 2PT-NBD1; format: binding; conditions: versus isolated 2PT-NBD1
T2 construct: 2PT-NBD1 mutants (residues 387-646 containing the mutations S492P, A534P, I539T); His6-SUMO (N, cleaved yes); made in house; host or cells: Escherichia coli BL21(DE3) pLysS
T2 sequence (P13569 388-646 V470M/S492P/A534P/I539T): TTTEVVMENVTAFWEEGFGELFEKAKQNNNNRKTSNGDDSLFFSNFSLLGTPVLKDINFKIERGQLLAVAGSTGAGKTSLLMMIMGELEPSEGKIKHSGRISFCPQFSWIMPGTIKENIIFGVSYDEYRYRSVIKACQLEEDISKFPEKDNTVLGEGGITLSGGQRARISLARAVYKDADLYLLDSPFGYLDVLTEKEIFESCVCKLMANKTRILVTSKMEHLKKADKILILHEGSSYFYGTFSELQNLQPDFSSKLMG
Experimental: as §1

wt-CFTR = wt-CFTR (Homo sapiens, UniProt P13569); experiment: Thermal inactivation of CFTR (residual ATPase activity after heat challenge); format: biochemical; parameters: His10-SUMO* (N); FLAG; EGFP (C); made in house; host or cells: HEK 293 cell line D165; conditions: residual ATPase activity after 30 min heat challenge
Chain of wt-CFTR (P13569 whole entry): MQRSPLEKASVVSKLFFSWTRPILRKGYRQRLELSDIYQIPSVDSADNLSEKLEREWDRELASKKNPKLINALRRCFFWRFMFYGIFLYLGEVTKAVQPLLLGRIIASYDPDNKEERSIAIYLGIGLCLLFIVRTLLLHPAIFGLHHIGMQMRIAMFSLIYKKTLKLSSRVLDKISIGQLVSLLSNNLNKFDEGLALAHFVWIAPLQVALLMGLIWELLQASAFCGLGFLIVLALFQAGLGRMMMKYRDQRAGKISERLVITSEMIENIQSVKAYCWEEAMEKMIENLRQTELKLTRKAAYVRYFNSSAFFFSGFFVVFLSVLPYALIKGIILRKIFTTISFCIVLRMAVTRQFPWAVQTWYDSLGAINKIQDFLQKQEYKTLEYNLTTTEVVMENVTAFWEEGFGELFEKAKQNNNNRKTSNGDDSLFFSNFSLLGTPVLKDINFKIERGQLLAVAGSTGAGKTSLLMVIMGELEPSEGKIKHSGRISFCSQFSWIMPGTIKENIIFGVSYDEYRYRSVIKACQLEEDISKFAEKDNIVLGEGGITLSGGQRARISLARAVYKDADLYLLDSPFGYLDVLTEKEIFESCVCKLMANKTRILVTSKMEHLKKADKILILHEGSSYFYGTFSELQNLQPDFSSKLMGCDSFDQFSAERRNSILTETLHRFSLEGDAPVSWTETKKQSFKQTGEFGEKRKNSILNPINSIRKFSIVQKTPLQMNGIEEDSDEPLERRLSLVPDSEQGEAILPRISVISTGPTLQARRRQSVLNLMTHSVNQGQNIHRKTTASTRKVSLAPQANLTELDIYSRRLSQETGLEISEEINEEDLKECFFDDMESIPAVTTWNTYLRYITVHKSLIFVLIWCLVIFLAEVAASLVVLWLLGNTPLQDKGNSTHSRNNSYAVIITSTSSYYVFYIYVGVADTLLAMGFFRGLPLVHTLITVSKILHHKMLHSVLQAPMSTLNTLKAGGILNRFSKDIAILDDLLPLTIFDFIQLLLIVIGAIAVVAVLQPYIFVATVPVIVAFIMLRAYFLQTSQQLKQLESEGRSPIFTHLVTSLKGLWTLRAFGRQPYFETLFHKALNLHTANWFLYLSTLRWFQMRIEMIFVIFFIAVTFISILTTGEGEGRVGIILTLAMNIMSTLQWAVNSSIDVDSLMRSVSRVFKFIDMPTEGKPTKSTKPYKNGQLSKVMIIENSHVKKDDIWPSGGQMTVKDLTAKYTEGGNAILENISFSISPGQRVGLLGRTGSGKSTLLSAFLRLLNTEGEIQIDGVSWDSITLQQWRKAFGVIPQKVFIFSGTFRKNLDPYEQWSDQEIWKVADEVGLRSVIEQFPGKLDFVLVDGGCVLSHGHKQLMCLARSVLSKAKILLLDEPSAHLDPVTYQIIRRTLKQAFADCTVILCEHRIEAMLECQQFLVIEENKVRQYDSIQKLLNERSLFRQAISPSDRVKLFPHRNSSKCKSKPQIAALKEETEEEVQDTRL
Experimental: To determine effect of nanobodies on functional stability, aliquots of purified wt-CFTR (25 nM) were preincubated 1 h on ice with 1 μM nanobody (or 15 μM, in the case of G3a). Substrate α-[32P]-ATP (2 μl) was then added for measurement of ATPase activity as previously described^[48]. Then, nanobody protection against thermal denaturation was determined after a 30 min thermal challenge of the protein complexes followed by an assay of residual ATPase.

2PT-NBD1 [2] = molecular target: T2, 2PT-NBD1; experiment: NBD1 ELISA dose-response, nanobody binding to immobilized 2PT-NBD1; conditions: immobilized biotinylated 2PT-NBD1
Experimental: as §2, with “Signal detection was followed using His-tag specific antibody (Invitrogen, catalogue number: MA1-135, 1:3000 dilution) to detect the nanobodies and secondary antibody anti-mouse coupled to horse radish peroxidase (HRP) (Millipore, catalogue number: AP308P, 1:5000 dilution).” left out
Affinity constants (KD) and thermodynamic parameters from ITC experiments were determined using one-site binding model with MicroCal Origin 7.0 software (Origin Lab Corp.). […] DSC data were analyzed with the MicroCal Origin 7.0 software (Origin Lab Corp.), from which the unfolding temperature (Tm) was obtained.

[3] = molecular target: T3, stab-CFTR: 2PT/ΔRI/R1048A_1172X (Homo sapiens, UniProt P13569, A534P/DEL405-436/I539T/R1048A/S492P); experiment: NanoDSF thermostability of stab-CFTR; format: binding; conditions: versus stab-CFTR alone
T3 construct: made in house; host or cells: BHK-21 cells (ATCC CCL-10), pNUT vector
T3 sequence (P13569 with tags, fused parts or gaps DEL405-436/S492P/A534P/I539T/R1048A limits assumed): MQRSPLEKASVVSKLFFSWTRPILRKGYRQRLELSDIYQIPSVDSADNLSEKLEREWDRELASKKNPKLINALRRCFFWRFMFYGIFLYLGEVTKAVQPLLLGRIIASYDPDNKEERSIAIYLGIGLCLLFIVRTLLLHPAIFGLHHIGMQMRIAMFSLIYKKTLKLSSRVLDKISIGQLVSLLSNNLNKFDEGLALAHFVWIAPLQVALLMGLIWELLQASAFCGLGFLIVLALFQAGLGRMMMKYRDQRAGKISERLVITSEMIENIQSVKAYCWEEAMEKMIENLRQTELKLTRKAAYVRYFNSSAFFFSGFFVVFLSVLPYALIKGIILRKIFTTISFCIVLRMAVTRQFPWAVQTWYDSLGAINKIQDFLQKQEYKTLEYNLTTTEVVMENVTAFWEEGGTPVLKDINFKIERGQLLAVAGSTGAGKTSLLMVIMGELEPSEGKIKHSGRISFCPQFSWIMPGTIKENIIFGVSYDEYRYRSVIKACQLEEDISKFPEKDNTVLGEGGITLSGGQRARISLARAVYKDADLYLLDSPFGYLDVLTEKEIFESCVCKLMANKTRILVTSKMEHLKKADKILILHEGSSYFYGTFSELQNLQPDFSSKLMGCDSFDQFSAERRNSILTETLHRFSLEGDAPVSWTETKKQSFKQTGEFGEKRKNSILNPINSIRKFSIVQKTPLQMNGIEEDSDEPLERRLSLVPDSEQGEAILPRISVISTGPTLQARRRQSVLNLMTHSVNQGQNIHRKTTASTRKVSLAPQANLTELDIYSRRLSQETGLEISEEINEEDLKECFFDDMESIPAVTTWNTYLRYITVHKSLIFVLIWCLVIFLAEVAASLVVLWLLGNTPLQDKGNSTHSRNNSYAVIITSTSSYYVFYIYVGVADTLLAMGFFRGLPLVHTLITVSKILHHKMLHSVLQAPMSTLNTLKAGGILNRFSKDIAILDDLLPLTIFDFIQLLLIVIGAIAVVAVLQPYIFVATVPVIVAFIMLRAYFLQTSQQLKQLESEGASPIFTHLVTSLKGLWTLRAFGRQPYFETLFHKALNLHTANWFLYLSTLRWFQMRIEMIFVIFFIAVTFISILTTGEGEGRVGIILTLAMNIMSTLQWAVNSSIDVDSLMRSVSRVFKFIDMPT
Experimental: Purified stabilized human CFTR (stab-CFTR: 2PT/ΔRI/R1048A_1172X) was concentrated to 0.5 mg/ml and mixed with 0.1 mg/ml nanobody (^˜[…]) and capillaries were loaded with a volume of 10 The capillaries were placed into trays of Prometheus NT.48 (Nanotemper) and subjected to the fluorescence analysis. The emission of fluorescent radiation with the wavelengths of 330 nm and 350 nm was measured with the temperature changes from 25 to 85° C., with the rate of 1° C. min-1. The first derivative of 350 nm fluorescence was used to determine the melting temperature of the proteins.

B1: D12: NBD1-specific CFTR-stabilizing nanobody, SEQ ID NO:2, binds epitope 1 (protein)
VHH: QVQLQESGGGLVQAGSSLRLACAATGSIRSINNMGWYRQAPGKQRGMVAIITRVGNTDYADSVKGRFTISRDNAKNTVYLQMNSLKPEDTATYYCHAEITEQSRPFYLTDDYWGQGTQVTVSS
modifications: D12 Nanobody amino acid sequence
stabilization of F508del-2PT-NBD1 (F508del-2PT-NBD1): to the same extent as 2PT-NBD1
apparent EC50 on 2PT-NBD1-RE compared to 2PT-NBD1 (2PT-NBD1-RE): decrease in apparent EC50
binding to 2PT-NBD1-RE (2PT-NBD1-RE): high-affinity binding
increase of Tm of 2PT-NBD1 (2PT-NBD1 [1]): 13.8 °C
shift of CFTR thermal inactivation (wt-CFTR): 7 °C

stabilization of F508del-2PT-NBD1 (F508del-2PT-NBD1): to the same extent as 2PT-NBD1
apparent EC50 on 2PT-NBD1-RE compared to 2PT-NBD1 (2PT-NBD1-RE): decrease in apparent EC50
binding to 2PT-NBD1-RE (2PT-NBD1-RE): high-affinity binding
B2: T27: NBD1-specific CFTR-stabilizing nanobody, SEQ ID NO:4, binds epitope 1 (protein)
VHH: QVQLQESGGGLEQPGGSLRLSCATSGVIFGINAMGWYRQAPGKQRELVATFTSGGSTNYADFVEGRFTISRDNAKNTVYLQMNGLRPEDTAVYYCHATVVVSRYGLTYDYWGQGTQVTVSS
modifications: T27 Nanobody amino acid sequence
increase of Tm of 2PT-NBD1 (2PT-NBD1 [1]): 11.9 °C

B3: G3a: non-stabilizing nanobody, SEQ ID NO:50, recognizes the structurally diverse region of NBD1 (protein)
VHH: QVQLQESGGGLVQAGGSLRLSCTASGRAFSWYVMGWFRQAPGKEREFVATVSGNGSRRDYADSVKGRFTISRDNAKNTVYLQMNSLKPEDTAVYYCAASSTYYYTDPEKYDYWGQGTQVTVSS
modifications: G3a Nanobody
EC50 of binding to 2PT-NBD1 (2PT-NBD1 [2]): weaker binding potency
increase of Tm of 2PT-NBD1 (2PT-NBD1 [1]): did not induce a significant shift
shift of CFTR thermal inactivation (wt-CFTR): 3.1 °C

B4: T8: nanobody, SEQ ID NO:7, binds epitope 2 including F508, stabilizes WT CFTR but not F508del (protein)
VHH: QVQLQESGGGLVQPGGSLRLSCAASGSTSSINAMGWYRQAPGKQREPVAISSSGGDTRYAEPVKGRFTISRDNAQNKVYLQMNSLKPEDTAVYYCWLNWGRTSVNSWGQGTQVTVSS
modifications: T8 Nanobody amino acid sequence
stabilization of F508del-2PT-NBD1 (F508del-2PT-NBD1): did not stabilize
increase of Tm of 2PT-NBD1 (2PT-NBD1 [1]): 9.3 °C

B5: T2a: NBD1-specific CFTR-stabilizing nanobody, SEQ ID NO:3, binds epitope 1 (protein)
VHH: QVQLQESGGGLVQAGGSLRLSCAASGSIFRIDAMGWYRQAPGKQRELVAHSTSGGSTDYADSVKGRFTISRDNAKNTVYLQMNSLKPEDTAVYYCNADVRTRWYASNNYWGQGTQVTVSS
modifications: T2a Nanobody amino acid sequence
thermostabilization of stab-CFTR (Tm increase) [3]: 8 °C
stabilization of F508del-2PT-NBD1 (F508del-2PT-NBD1): to the same extent as 2PT-NBD1
apparent EC50 on 2PT-NBD1-RE compared to 2PT-NBD1 (2PT-NBD1-RE): decrease in apparent EC50
binding to 2PT-NBD1-RE (2PT-NBD1-RE): high-affinity binding
increase of Tm of 2PT-NBD1 (2PT-NBD1 [1]): 11.2 °C
